In patent US10047131B2, “Peptides and combination of peptides for use in immunotherapy against ovarian cancer and other cancers” (immatics biotechnologies GmbH, priority 2015, dated 2018):

molecular target: HLA-A*02:01 (Homo sapiens, UniProt P04439, D140Y/D185E/D98H/E176V/E277Q/G131W/G231S/I119V/I121R/I166T/I218V/L300P/L318F/N151K/N90K/P208A/P217A/Q86G/Q94H/R138H/R169H/T345S); assay: MHC binding assay (UV-ligand exchange, ELISA of exchange yield); settings: binding to HLA-A*02:01, UV-ligand exchange
How it was run: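 ELISA of β2m retained on streptavidin-captured, 100-fold diluted complexes (HRP anti-β2m, TMB, 450 nm) gives the yield. Complexes come from UV-triggered exchange of a photocleavable placeholder peptide for the candidate, which must bind to stop complex dissociation.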

Peptide exchange (MHC class I binding score, peptide exchange yield) | Substance
“+++” (≥50 = +++) | 521 (MLLTKLPTI; listed as Homo sapiens) [compound 521]
“++” (≥20% = ++) | 522 (TLWYRSPEV; listed as Homo sapiens) [compound 522]
“++” (≥20% = ++) | 523 (YQIPRTFTL; listed as Homo sapiens) [compound 523]
“++” (≥20% = ++) | 524 (ALIENLTHQI; listed as Homo sapiens) [compound 524]
“+++” (≥50 = +++) | 525 (VLLEAGEGLVTI; listed as Homo sapiens) [compound 525]
“++” (≥20% = ++) | 526 (RLAEVGQYEQV; listed as Homo sapiens) [compound 526]
“++++” (≥75% = ++++) | 527 (FLLEPGNLEV; listed as Homo sapiens) [compound 527]
“+++” (≥50 = +++) | 528 (SVAEGRALMSV; listed as Homo sapiens) [compound 528]
“+++” (≥50 = +++) | 529 (LLADELITV; listed as Homo sapiens) [compound 529]
“+++” (≥50 = +++) | 530 (VMYADIGGMDI; listed as Homo sapiens) [compound 530]
“+++” (≥50 = +++) | 531 (YTLPIASSIRL; listed as Homo sapiens) [compound 531]
“+++” (≥50 = +++) | 537 (TLAPGEVLRSV; listed as Homo sapiens) [compound 537]
“++” (≥20% = ++) | 538 (LLLAHIIAL; listed as Homo sapiens) [compound 538]
“+++” (≥50 = +++) | 539 (ALFDAQAQV; listed as Homo sapiens) [compound 539]
“+++” (≥50 = +++) | 541 (SMLEPVPEL; listed as Homo sapiens) [compound 541]
“+++” (≥50 = +++) | 542 (RVWDISTVSSV; listed as Homo sapiens) [compound 542]
“+++” (≥50 = +++) | 543 (GLLPTPITQQASL; listed as Homo sapiens) [compound 543]
“+++” (≥50 = +++) | 544 (LLWDVPAPSL; listed as Homo sapiens) [compound 544]
“+++” (≥50 = +++) | 545 (LLADLLHNV; listed as Homo sapiens) [compound 545]
“+++” (≥50 = +++) | 546 (VMIAGKVAVV; listed as Homo sapiens) [compound 546]
“+++” (≥50 = +++) | 547 (TLDITPHTV; listed as Homo sapiens) [compound 547]
“++” (≥20% = ++) | 548 (ALWENPESGEL; listed as Homo sapiens) [compound 548]

Peptide exchange (MHC class I binding score, peptide exchange yield) | Substance
“+++” (≥50 = +++) | 549 (AMLENASDIKL; listed as Homo sapiens) [compound 549]
“+++” (≥50 = +++) | 550 (FLYDEIEAEVNL; listed as Homo sapiens) [compound 550]
“+++” (≥50 = +++) | 551 (KLYESLLPFA; listed as Homo sapiens) [compound 551]
“++++” (≥75% = ++++) | 552 (GLLDLPFRVGV; listed as Homo sapiens) [compound 552]
“++++” (≥75% = ++++) | 553 (SLLNQDLHWSL; listed as Homo sapiens) [compound 553]
“+++” (≥50 = +++) | 554 (LLMPSSEDLLL; listed as Homo sapiens) [compound 554]
“+++” (≥50 = +++) | 555 (YVLEGLKSV; listed as Homo sapiens) [compound 555]
“+++” (≥50 = +++) | 556 (FLTDLEDLTL; listed as Homo sapiens) [compound 556]
“+++” (≥50 = +++) | 557 (KLYDDMIRL; listed as Homo sapiens) [compound 557]
“+++” (≥50 = +++) | 558 (GLLENIPRV; listed as Homo sapiens) [compound 558]
“++” (≥20% = ++) | 559 (VTVPPGPSL; listed as Homo sapiens) [compound 559]
“+++” (≥50 = +++) | 560 (ALWDIETGQQTTT; listed as Homo sapiens) [compound 560]
“+++” (≥50 = +++) | 561 (YLQLTQSEL; listed as Homo sapiens) [compound 561]
“+++” (≥50 = +++) | 562 (YLEELPEKLKL; listed as Homo sapiens) [compound 562]
“+++” (≥50 = +++) | 563 (WLLPYNGVTV; listed as Homo sapiens) [compound 563]
“+++” (≥50 = +++) | 564 (TVTNAVVTV; listed as Homo sapiens) [compound 564]
“++” (≥20% = ++) | 565 (ALQETPTSV; listed as Homo sapiens) [compound 565]
“++” (≥20% = ++) | 566 (VIADGGIQNV; listed as Homo sapiens) [compound 566]
“+++” (≥50 = +++) | 567 (SLLPLDDIVRV; listed as Homo sapiens) [compound 567]
“++++” (≥75% = ++++) | 568 (TLYDIAHTPGV; listed as Homo sapiens) [compound 568]
“+++” (≥50 = +++) | 569 (KLVDRTWTL; listed as Homo sapiens) [compound 569]
“++” (≥20% = ++) | 570 (ALANQIPTV; listed as Homo sapiens) [compound 570]

Peptide exchange (MHC class I binding score, peptide exchange yield) | Substance
“+++” (≥50 = +++) | 571 (LLLTTIPQI; listed as Homo sapiens) [compound 571]
“+++” (≥50 = +++) | 572 (ALADLIEKELSV; listed as Homo sapiens) [compound 572]
“+++” (≥50 = +++) | 573 (ILVANAIVGV; listed as Homo sapiens) [compound 573]
“++” (≥20% = ++) | 574 (YLLQEPPRTV; listed as Homo sapiens) [compound 574]
“+++” (≥50 = +++) | 575 (YLISQVEGHQV; listed as Homo sapiens) [compound 575]
“++++” (≥75% = ++++) | 576 (ILLNNSGQIKL; listed as Homo sapiens) [compound 576]
“+++” (≥50 = +++) | 577 (VMFEDGVLMRL; listed as Homo sapiens) [compound 577]
“+++” (≥50 = +++) | 578 (FLDPGGPMMKL; listed as Homo sapiens) [compound 578]
“++” (≥20% = ++) | 579 (NLMEMVAQL; listed as Homo sapiens) [compound 579]
“++” (≥20% = ++) | 580 (LLMENAERV; listed as Homo sapiens) [compound 580]
“+++” (≥50 = +++) | 582 (TLCDVILMV; listed as Homo sapiens) [compound 582]
“+++” (≥50 = +++) | 583 (ILANDGVLLAA; listed as Homo sapiens) [compound 583]
“+++” (≥50 = +++) | 584 (ALAEVAAMENV; listed as Homo sapiens) [compound 584]
“++++” (≥75% = ++++) | 585 (ALWDLAADKQTL; listed as Homo sapiens) [compound 585]
“+++” (≥50 = +++) | 586 (KLKPGDLVGV; listed as Homo sapiens) [compound 586]
“+++” (≥50 = +++) | 587 (VMNDRLYAI; listed as Homo sapiens) [compound 587]
“+++” (≥50 = +++) | 588 (SLLPLSHLV; listed as Homo sapiens) [compound 588]
“+++” (≥50 = +++) | 589 (KLYPQLPAEI; listed as Homo sapiens) [compound 589]
“++” (≥20% = ++) | 590 (SLIEKLWQT; listed as Homo sapiens) [compound 590]
“+++” (≥50 = +++) | 591 (SMAELDIKL; listed as Homo sapiens) [compound 591]
“+++” (≥50 = +++) | 592 (RLLSAAENFL; listed as Homo sapiens) [compound 592]
“+++” (≥50 = +++) | 593 (GLPRFGIEMV; listed as Homo sapiens) [compound 593]
